In the experiment the target is TNFR2 (human TNFR2, SEQ ID NO: 1) (human) (UniProt P20333). The experiment in a line: surface plasmon resonance (Pioneer SensiQ). In general terms: In SPR one partner is held on a chip, and binding of the other changes the refractive index at the surface.

pKd: −log10 of the molar value.

The pKd is −log10 of the Kd, conventionally taken in molar units. Read a low pKd as a high Kd.

Sequence of UniProt P20333 (P20333 23-257 limits assumed): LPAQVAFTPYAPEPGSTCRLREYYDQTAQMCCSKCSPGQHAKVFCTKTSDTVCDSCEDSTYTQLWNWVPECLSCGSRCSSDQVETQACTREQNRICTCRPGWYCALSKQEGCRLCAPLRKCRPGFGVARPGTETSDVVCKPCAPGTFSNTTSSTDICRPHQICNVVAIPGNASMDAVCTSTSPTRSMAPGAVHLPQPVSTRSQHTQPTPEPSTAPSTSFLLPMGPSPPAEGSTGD

“Clone MAB726 (R&D Systems, Inc.) anti-TNFR2 antagonist monoclonal antibody” showed a pKd of 9.21.
